B1: H3: anti-HDGF IgG1 monoclonal antibody; heavy chain SEQ ID NO:36, light chain SEQ ID NO:38 (antibody, V domains shown)
VH: QITLKQSGPGIVQPSQPVRLTCTFSGFSLSTSGIGVAWIRQPSGKGLEWLATIWWDDDNRYNPSLKSRLAVSKDTSNNQAFLNIITVETADTAIYYCAQIYDYAVGFAYWGQGTLVTVSA
VL: DIQMTQTTSSLSASLGDRVTISCRASQDISNYLNWYQQKPDGTVKLLIYYTSRLHSGVPSRFSGSGSGTDYSLTISNLEPDDIATYYCQQYGKLWTFGGGTKLEIK
modifications: H3 heavy chain aa; H3 light chain aa
B2: anti-HDGF monoclonal antibody C1 (antibody, V domains shown)
VH: EVQLVESGGRLVQPKGSLKLSCAASGFTFNTYAMYWIRQAPGKGLEWVARIRSKSYNYATYYADSVKDRFTISRDDSQSMLYLQMNNLKTADTAMYYCVSEGFWGQGTSVTVSS
VL: DVLMTQTPLSLPVSLGDQASISCRSSQSIVHSSGNTYLEWYLQKPGQSPKLLIYKVSNRFSGVPDRFSGSGSGTDFTLKISRVEAEDLGVYYCFQGSHVPWTFGGGTKLEIK
notes: also called HDGF C1-2f; C1 antibody
B3: C1: anti-HDGF IgG1 monoclonal antibody; heavy chain SEQ ID NO:32, light chain SEQ ID NO:34 (antibody, V domains shown)
VH: B2 VH
VL: B2 VL
modifications: C1 heavy chain aa; C1 light chain aa

How the values were obtained:
[1] = tested on: A549 xenograft; assay: A549 xenograft model, H3 in combination with gemcitabine and Avastin; assay type: in vivo, mouse; conditions: single agents and combinations
Method: To determine potential synergistic effects of combining the antibodies with other cancer therapeutic agents, the H3 antibody was tested in combination with gemcitabine, a commonly used chemotherapeutic agent, and Avastin®, a FDA approved VEGF neutralizing monoclonal antibody, in the A549 xenograft model. At day 7 after tumor cell inoculation subcutaneously, the animals were randomized into one of the 8 groups: […] (6 mice), gemcitabine (5 mice), H3 (7 mice), Avastin® (5 mice), H3+gemcitabine (5 mice), 113+Avastin® (5 mice), Avastin®+gemcitabin (5 mice), and H3+ gemcitabine+Avastin® (7 mice). In this experiment, all the agents were given IP at day 7 and every 3 days thereafter for total 5 injections. H3 was given 250 μg per mouse/injection without boost at first injection; gemcitabine was given in a dose of 80 mg/kg/injection; and Avastin® was given 100 μg per mouse/injection.

[2] = tested on: tumor microvessels; assay: CD31 staining of microvessels in treated A549 xenograft tumors; assay type: in vivo, mouse
Source text: In order to directly study the antiangiogenic action of anti-HDGF antibodies, the xenograph tumors treated with the various agents and presented in the foregoing example (see FIG. 8) were studied following CD31 staining. CD31 antibody staining is generally regarded as a convenient means of visualizing microvessels in order to assess angiogenesis and anti-angiogenic action. Each of the tumors treated as described with respect to FIG. 8 were subjected to CD31 staining.

[3] = molecular target: T1, HDGF (Homo sapiens, UniProt P51858); assay: Immunoprecipitation of HDGF from H460 total cell lysates; assay type: binding; conditions: H460 NSCLC total cell lysates
T1 construct: The antibody sufficiently pulled down over 90% of the cellular HDGF; endogenous in cells; host or cells: H460 NSCLC cells (total cell lysate)
T1 sequence (P51858 whole entry): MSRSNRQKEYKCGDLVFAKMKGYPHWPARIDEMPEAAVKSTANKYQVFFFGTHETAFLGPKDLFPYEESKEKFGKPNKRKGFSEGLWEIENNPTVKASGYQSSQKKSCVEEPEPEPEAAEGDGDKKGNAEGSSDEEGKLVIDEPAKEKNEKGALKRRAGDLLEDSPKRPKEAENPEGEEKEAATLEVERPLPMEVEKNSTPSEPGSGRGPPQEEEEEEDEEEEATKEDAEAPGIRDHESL
Method: In most studies, HDGF was found localized in nuclear compartment. […] One possibility of the lacking cytoplasmic staining is the common IHC conditions. Alternatively, the protein may be rapidly released from cells making the detection of protein in cytoplasm difficult. Taking advantage of the newly developed monoclonal antibodies, two sets of experiments were performed to determine the subcellular localization of HDGF and the secretion/releasing status of the protein. In one set of experiment, H3 was used for immunoprecipitation (IP) employing total cell lysates from H460 NSCLC cells. The antibody sufficiently pulled down over 90% of the cellular HDGF. Some potential HDGF binding proteins might have also co-precipitated with HDGF. We then extracted cytoplasmic proteins and nuclear proteins separately and performed IP as described above followed by 2-DE protein separation. Although the relative HDGF protein amount was higher in the nuclear than in the cytoplasm with equal amount of protein loading, HDGF was clearly presented in cytoplasm with distinct modification or homologues patterns between the two subcellular compartments. It should be noted that the total amount of cytoplasmic proteins is much higher than the nuclear proteins. Therefore, the absolute amount of HDGF in cytoplasm may actually be similar or even higher to that in nuclear.

[4] = molecular target: native HDGF (Homo sapiens, UniProt P51858); assay: Binding to native HDGF (immunoprecipitation, clone selection)
Sequence of native HDGF (Homo sapiens, UniProt P51858) (P51858 whole entry): as above
Source text: Thus, to develop a useful therapeutic that could affect tumor control, it was deemed important to develop high-affinity monoclonal antibodies that had the ability to bind native HDGF. An exemplary approach that was employed by the inventors involved, first, generating full-length recombinant HDGF in bacteria. This bacterially expressed recombinant HDGF was then used the immunize mice to generate mature B cells secreting antibodies specifically recognizing HDGF. After fusing the B cells with myeloma cells and several rounds of screening/selection steps, single clones secreting high-affinity IgGs capable to bind native HDGF were identified. […] Antibodies from these clones were selected and tested using IHC. Similar staining patterns were obtained in a panel of tumor samples among these antibodies and between these antibodies and the previously mentioned polyclonal antibodies, indicating these antibodies recognize HDGF. All of the four monoclonal antibodies are IgG1 and have been adapted to serum-free conditions for scale-up production.

[5] = tested on: A549 xenograft; assay: A549 xenograft model, individual monoclonal antibodies; assay type: in vivo, mouse; conditions: for average tumor weights: 500 μg boost then 250 μg every three days x4 i.p., day 22, PBS 784±458; for tumor growth inhibition vs PBS and M31 controls: A549 xenograft, individual antibodies
Source text: To determine an anti-tumor effect of individual monoclonal antibodies, the CELLine™ system (BD Biosciences) was used to generate the amount of antibodies for each clone sufficient for our animal experiments. In our second experiment, we tested four individual monoclonal antibodies (H3, C1, C4, and L5-9) and used PBS and M31, an IgG1 antibody without known antigen, as controls. Cell inoculation was similar to the experiment described above, 7 days after subcutaneous injection of A549 cells, the animals with established tumors were randomized into one of the 6 groups. Besides PBS group, which was given 200 μl PBS every IP injection, all the other groups were given a 500 μg of individual antibody as boost dose followed by 250 μg/injection every three days for four times. Tumor sizes were measured every three days. All the animals were sacrificed at day 22 after tumor cell inoculation.

[6] = tested on: H460 xenograft; assay: H460 xenograft model; assay type: in vivo, mouse
[7] = Antibody distribution after intra-peritoneal injection in tumor-bearing nude mice; assay type: in vivo; conditions: for antibody localization in tumor tissue (anti-mouse IgG staining): tumor tissue sections of treated tumors
Method: To determine the distribution of the antibodies after intra-peritoneal injection in the animals, we injected fluoresce labeled M31 and H3 antibodies into nude mice and used a scanner to measure the antibody distribution 12 h after injection. […] To determine the antibody distribution in the tumor tissues and to compare the patterns of the distribution in the tumor tissues among the different antibodies, a specific anti-mouse IgG antibody was used to stain tumor tissue sections of tumors treated with different antibodies.

[8] = tested on: "MiaPaca-2" line (M109); assay: Putative MiaPaca-2 (believed M109 murine lung adenocarcinoma) xenograft model; assay type: in vivo, mouse; conditions: putative MiaPaca-2 (murine M109) model, H3 compared with C1
Method: (§1) The two antibodies were tested using what was believed at the time to be the MiaPaca-2 pancreatic cancer xenograft model. […] This observation led to the use of H3 in the initial combination experiment described above. To determine the expression of HDGF in the cell line, a Western blot analysis was performed using C1 and H3 antibodies. […] To determine HDGF expression levels in pancreatic cancers, 7 additional pancreatic cancer cell lines were analyzed. All the 7 cell lines expressed high-level HDGF recognizable by H3 antibody but not the putative “MiaPaca-2” line.
(§2) An immunoprecipitation assay was then performed using H3 antibody to determine whether the antibody recognizes the native HDGF in the cells, which is important to explain why the antibody had inhibited the tumor growth in the xenograft model. […] Because the protein migrated faster than the HDGF from NSCLC cell lines, the HDGF cDNA from “MiaPaca-2” cells was sequenced. […] The origin of the cell line was traced and is now believed to be M109, a murine lung adenocarcinoma cell line from a mouse spontaneous lung cancer.

[9] = molecular target: T2, HDGF (Mus musculus, UniProt P51859, A118D); assay: Western blot of HDGF in putative MiaPaca-2 cells; assay type: binding; conditions: putative MiaPaca-2 line (murine HDGF)
T2 construct: endogenous in cells; host or cells: putative MiaPaca-2 cells, believed to be M109 murine lung adenocarcinoma
T2 sequence (P51859 whole entry A118D): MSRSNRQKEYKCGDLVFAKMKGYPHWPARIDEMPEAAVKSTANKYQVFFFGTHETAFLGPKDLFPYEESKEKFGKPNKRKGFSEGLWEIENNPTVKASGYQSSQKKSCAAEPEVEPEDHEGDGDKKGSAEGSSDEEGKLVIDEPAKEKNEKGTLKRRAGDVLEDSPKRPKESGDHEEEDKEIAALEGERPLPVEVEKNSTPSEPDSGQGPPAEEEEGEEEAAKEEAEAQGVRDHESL
Method: as §1, §2

[10] = molecular target: T3, native HDGF (Mus musculus, UniProt P51859); assay: Immunoprecipitation of native HDGF from putative MiaPaca-2 cells; assay type: binding; conditions: putative MiaPaca-2 cells (murine HDGF)
T3 construct: endogenous in cells; host or cells: putative MiaPaca-2 cells, believed to be M109 murine lung adenocarcinoma
T3 sequence (P51859 whole entry): as the sequence (P51859 whole entry A118D) above, with D118A counted along it
Method: as §2

[11] = tested on: L3.6 pancreatic cancer cells; assay: L3.6 pancreatic cancer xenograft model; assay type: in vivo; conditions: mice with tumors bigger than 500 mg, one week after treatment
Method: Anti-HDGF antibodies were tested for a therapeutic effect in a xenograft model using metastatic L3.6 pancreatic cancer cells. After 10 days of tumor cell inoculation, mice were randomly selected into either M31 control antibody treatment, H3 antibody treatment, or C1 antibody treatment. The sizes of the tumors were between 100-200 mg at the time of treatment except three which grown bigger than 500 mg and were assigned to each group. […] This phenomenon is similar to human clinical observations where some established primary lung cancers develop liquidized central part of the tumors after treatment with agents having anti-angiogenic activity such as sorafenib (BAY 43-9006). This is a hallmark feature of anti-angiogenic agents as a class.

[12] = molecular target: T4, human hepatoma-derived growth factor (HDGF) (human, UniProt P51858 1-240); assay: sandwich ELISA, 40 ng C1 coated per well as capture antibody
T4 construct: In most assays the endogenous protein of human cancer cell lines or tissues (lysates for immunoprecipitation, denatured on Western blots); also called native HDGF; recombinant HDGF
T4 sequence (P51858 whole entry): as the sequence (P51858 whole entry) above

Row | Molecule | tumor growth inhibition [1] | size of the microvessels in the tumors [2] | numbers of microvessels in the tumors [2] | binding to native HDGF [4] | average tumor weights [5] | tumor growth inhibition vs PBS and M31 controls [5] | tumor growth inhibition [6] | antibody localization in tumor tissue (anti-mouse IgG staining) [7] | detection of HDGF on Western blots [9] | liquidized central part of tumor (hollow effect) [11] | also measured
1 | Nc1ccn([C@@H]2O[C@H](CO)[C@@H](O)C2(F)F)c(=O)n1 [gemcitabine, reference compound] | only modest tumor growth inhibition | further increase the size | – | – | – | – | – | – | – | – | –
2 | Avastin®: FDA approved VEGF neutralizing monoclonal antibody [reference compound] | best inhibition | – | substantially reduced numbers of microvessels | – | – | – | – | – | – | – | –
3 | B1 | best inhibition followed by H3 | stronger role in reducing the size | substantially reduced numbers of microvessels | ability to immunoprecipitate HDGF | 266±22 | most significant tumor growth inhibition | effective in inhibiting tumor growth | entered into the cytoplasmic compartment of some tumor cells | did not detect HDGF | developed liquidized central part | cellular HDGF pulled down by immunoprecipitation [3]: over 90%; antibody distribution in the animals including tumors ([7]; fluorescence-labeled antibody, 12 h after i.p. injection, nude mice): evenly distributed; tumor growth inhibition [8]: better tumor growth inhibition; binding to native HDGF of the tumor cells [10]: strongly bound
4 | B2 | – | – | – | – | – | – | – | – | – | – | binding result [12]: binds
5 | B3 | – | – | – | ability to immunoprecipitate HDGF | 224±85 | most significant tumor growth inhibition | effective in inhibiting tumor growth | entered into both cytoplasm and nuclear | did not detect HDGF | developed liquidized central part | –

— patent publication US20070243191A1, “ANTI-HYPERPROLIFERATIVE THERAPIES TARGETING HDGF” (THE BOARD OF REGENTS OF THE UNIVERSITY OF TEXAS SYSTEM, priority 2005, published 2007)
